# Assay results reported in US20180265850A1.
# How the values were obtained:
# [1] = molecular target: human FKBP (12 kD, GenBank accession number: AAP36774.1) (human) (UniProt P62942); assay: cell-based or functional assay
# [2] = molecular target: FRB (11 kD, PDB access number: 1AUE A) (UniProt P42345); assay: cell-based or functional assay
# Sequence of human FKBP (12 kD, GenBank accession number: AAP36774.1) (human) (P62942 whole entry): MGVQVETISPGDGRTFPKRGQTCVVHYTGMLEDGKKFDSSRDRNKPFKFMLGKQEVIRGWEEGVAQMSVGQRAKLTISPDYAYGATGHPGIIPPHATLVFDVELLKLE
# Sequence of human FKBP (12 kD, GenBank accession number: AAP36774.1) (P62942 whole entry): as above
Substance,"bioluminescence intensity of probe TPv2.4 (printed 'TPv2') in COS-7 lysate, 10^-6 M rapamycin vs vehicle [1] [fold]","bioluminescence of living COS-7 cells expressing TPv2.4 on a microslide, 10^-6 M rapamycin vs control [1] [fold]","bioluminescence of probe TPv2.7 (FRB-ALuc30(1-212)-FKBP), 10^-6 M rapamycin vs vehicle [1] [fold]","bioluminescence of probe TPv2.8 (FRB-ALuc30(19-212)-FKBP), 10^-6 M rapamycin vs vehicle [1] [fold]","luminescence intensity of cells expressing TPv2.4, 10^-6 M rapamycin [1] [fold]",optical intensity of probe TPv1.3 (printed 'TPv11.3'; FKBP-ALuc23(1-212)-FRB) with 10^-6 M rapamycin (fraction of intensity without rapamycin) [2],optical intensity of probe TPv1.7 (FKBP-ALuc30(1-212)-FRB) with 10^-6 M rapamycin (fraction of intensity without rapamycin) [2]
"FRB (11 kD, PDB access number: 1AUE A) (from UniProt P42345 2015-2114)",6.7,6,2,2,5.4,–,–
"human FKBP (12 kD, GenBank accession number: AAP36774.1) (from UniProt P62942 1-108)",–,–,–,–,–,0.33,0.33
